According to patent publication US20190256599A1 (GlaxoSmithKline, published 2019):

T1: human ICOS ligand (B7-H2) (human, UniProt O75144 19-258, limits assumed)
T1 construct: also called native ICOS-L; CD275
T1 sequence (looked up): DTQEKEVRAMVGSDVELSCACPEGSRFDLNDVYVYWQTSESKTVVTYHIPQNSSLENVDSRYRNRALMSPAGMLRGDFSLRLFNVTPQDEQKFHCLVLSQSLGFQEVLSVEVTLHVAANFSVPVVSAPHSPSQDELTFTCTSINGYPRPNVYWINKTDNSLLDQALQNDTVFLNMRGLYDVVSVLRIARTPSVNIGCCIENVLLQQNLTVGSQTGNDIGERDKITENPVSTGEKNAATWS

T2: human ICOS on cells (human, UniProt Q9Y6W8 21-199)
T2 sequence (looked up): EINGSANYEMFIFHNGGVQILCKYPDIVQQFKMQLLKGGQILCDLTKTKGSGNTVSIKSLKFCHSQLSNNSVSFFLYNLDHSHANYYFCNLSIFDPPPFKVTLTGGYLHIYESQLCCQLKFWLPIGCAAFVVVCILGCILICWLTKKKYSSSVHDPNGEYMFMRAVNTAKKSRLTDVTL

B1: recombinant ICOS protein (R&D Systems) (receptor, human, UniProt Q9Y6W8 21-141, looked up)
chain: EINGSANYEMFIFHNGGVQILCKYPDIVQQFKMQLLKGGQILCDLTKTKGSGNTVSIKSLKFCHSQLSNNSVSFFLYNLDHSHANYYFCNLSIFDPPPFKVTLTGGYLHIYESQLCCQLKF
notes: Bought; also called ICOS receptor
B2: rabbit Fc-tagged recombinant human ICOS (Fc fusion, UniProt Q9Y6W8 21-140, looked up, not shown: a dimerising Fc or GST)
chain: EINGSANYEMFIFHNGGVQILCKYPDIVQQFKMQLLKGGQILCDLTKTKGSGNTVSIKSLKFCHSQLSNNSVSFFLYNLDHSHANYYFCNLSIFDPPPFKVTLTGGYLHIYESQLCCQLK
notes: Generated in-house; also called dimeric human ICOS; Fc-fusion version of the recombinant ICOS protein
B3: H2L5 IgG4PE (antibody, V domains shown)
VH: QVQLVQSGAEVKKPGSSVKVSCKASGYTFTDYAMHWVRQAPGQGLEWMGLISIYSDHTNYNQKFQGRVTITADKSTSTAYMELSSLRSEDTAVYYCGRNNYGNYGWYFDVWGQGTTVTVSS
VL: EIVLTQSPATLSLSPGERATLSCSASSSVSYMHWYQQKPGQAPRLLIYDTSKLASGIPARFSGSGSGTDYTLTISSLEPEDFAVYYCFQGSGYPYTFGQGTKLEIK
notes: Humanized variant of murine clone 422.2; human IgG4 with S228P and L235E (EU numbering), called IgG4PE; also called H2L5 hIgG4PE; ICOS IgG4PE

Key:
[1] = target: T1, human ICOS ligand (B7-H2); experiment: MSD plate assay: 1 µg/mL human ICOS ligand (B7-H2) on plate-coated recombinant ICOS, detected with biotinylated anti-ICOS-L and sulfo-tag streptavidin
Method: (§1) MSD plates were incubated overnight at 4° C. with 10 μg/mL recombinant ICOS protein (R&D Systems) diluted in PBS. […] Sulfo-tagged streptavidin at 10 μg/mL in Diluent 100 was used for detection of the biotinylated ligand. All incubations were at room temperature for one hour on a plate shaker unless otherwise noted. The plates were read immediately following MSD Readbuffer addition on a MSD MESO Quick Plex SQ 120 and data analyzed on MSD workbench software (Meso Scale Discovery).

[2] = target: T1, human ICOS ligand (B7-H2); experiment: Biacore (SPR), human ICOS-L on dimeric human ICOS
[3] = target: T1, human ICOS ligand (B7-H2); experiment: Biacore sensorgrams with fitted curves, ICOS-L on dimeric human ICOS
[4] = target: rabbit Fc-tagged recombinant Cynomolgus ICOS (cynomolgus macaque); experiment: Biacore (SPR), column MONKEY ka (1/Ms)
[5] = target: B2; experiment: Biacore (SPR), column HUMAN ka (1/Ms)
From the text: (§2) The ICOS binding data was fitted to a 1:1 kinetics model using the T200 data analysis software.

[6] = target: B2; experiment: Biacore (SPR), column HUMAN kd (1/s)
From the text: as §2

[7] = target: B2; experiment: BIAcore target capture, capture level hICOS 23.7 RU, Rmax 26.5 RU
human FcγR I (human) = human FcγR I (human) (UniProt P12314); experiment: SPR (ProteOn XPR36; table title says BIAcore), His-tagged FcγR captured, antibody as analyte, equilibrium model
human FcγR I (human), sequence (P12314 16-288 limits assumed): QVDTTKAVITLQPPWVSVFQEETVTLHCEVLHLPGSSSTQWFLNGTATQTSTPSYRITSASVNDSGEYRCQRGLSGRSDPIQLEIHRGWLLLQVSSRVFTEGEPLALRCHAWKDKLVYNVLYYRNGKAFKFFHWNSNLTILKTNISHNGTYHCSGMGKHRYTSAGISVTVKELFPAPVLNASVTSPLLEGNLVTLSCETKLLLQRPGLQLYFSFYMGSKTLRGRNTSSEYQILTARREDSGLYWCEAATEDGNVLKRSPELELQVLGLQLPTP

human FcγR IIb (human) = human FcγR IIb (human) (UniProt P31994); experiment: as above
human FcγR IIb (human), sequence (P31994 46-217 limits assumed): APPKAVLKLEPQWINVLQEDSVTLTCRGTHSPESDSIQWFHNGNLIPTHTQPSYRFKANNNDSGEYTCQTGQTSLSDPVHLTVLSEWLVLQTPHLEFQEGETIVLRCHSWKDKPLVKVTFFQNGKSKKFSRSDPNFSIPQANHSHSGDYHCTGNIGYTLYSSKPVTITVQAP

[8] = target: human FcγR IIa (R131) (human) (UniProt P12318); experiment: as above
human FcγR IIa (R131) (human), sequence (P12318 36-218 H167R limits assumed): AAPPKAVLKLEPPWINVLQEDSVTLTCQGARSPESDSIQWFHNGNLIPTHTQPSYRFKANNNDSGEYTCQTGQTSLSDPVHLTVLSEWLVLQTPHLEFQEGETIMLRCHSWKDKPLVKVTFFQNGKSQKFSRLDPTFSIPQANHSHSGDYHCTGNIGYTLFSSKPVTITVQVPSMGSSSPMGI

human ICOS on cells = target: T2, human ICOS on cells; experiment: cell-based or functional assay
[9] = target: B1; experiment: MSD competition assay: plate-coated recombinant ICOS, H2L5 IgG4PE titrated against 1 µg/mL human ICOS ligand (B7-H2); inhibition is partial
Method: as §1

[10] = target: rabbit Fc-tagged recombinant Cynomolgus ICOS (cynomolgus macaque); experiment: SPR, Biacore T200, Fc-tagged recombinant cynomolgus ICOS, 1:1 kinetics model
[11] = target: B2; experiment: SPR, Biacore T200, Fc-tagged recombinant human ICOS, 1:1 kinetics model
From the text: as §2

[12] = target: B1; experiment: MSD competition assay on plate-coated ICOS; blocked ligand: human ICOS ligand at 1 ug/mL
Method: as §1, with “Read buffer” for “Readbuffer”, “(Meso-Scale, Rockville, Md.).” for “(Meso Scale Discovery).”

[13] = target: B2; experiment: BIAcore target capture, capture level hICOS 39.8 RU, Rmax 40.5 RU
[14] = target: B2; experiment: SPR, Biacore; affinity of H2L5 for dimeric human ICOS against that of ICOS-L
[15] = target: rabbit Fc-tagged recombinant Cynomolgus ICOS (cynomolgus macaque); experiment: Biacore (SPR), column MONKEY kd (1/s)

Binder: B1
- binding result [1]: binds

Binder: B2
- Kd [2]: 22.6 nM
- Kd [3]: 22.6 nM

Binder: B3
- kon [4]: 391000 M⁻¹ s⁻¹
- kon [5]: 297000 M⁻¹ s⁻¹
- koff [6]: 0.000396 s⁻¹
- stoichiometry [7]: 0.6
- Kd (human FcγR I (human)): 645 nM
- Kd (human FcγR IIb (human)): 1470 nM
- Kd [8]: 2500 nM
- EC50 of IFNγ induction, isolated human CD4+ T cells, immobilized format, first donor (human ICOS on cells): 3.8 µg/mL
- EC50 of IFNγ induction, isolated human CD4+ T cells, immobilized format, second donor (human ICOS on cells): 4.5 µg/mL
- EC50 of IFNγ induction, isolated human CD4+ T cells, soluble format, first donor (human ICOS on cells): 6 µg/mL
- EC50 of IFNγ induction, isolated human CD4+ T cells, soluble format, second donor (human ICOS on cells): 4.3 µg/mL
- IC50 (read off the curve) [9]: ~2 µg/mL
- Kd [10]: 0.95 nM
- Kd [11]: 1.34 nM
- IC50 (read off the curve) [12]: ~2 µg/mL
- stoichiometry [13]: 0.5
- fold higher affinity than native ICOS-L/CD275 [14]: ~17 fold
- koff [15]: 0.000371 s⁻¹
